Data taken from patent publication US6153382.

Key:
[1] = biological target: HIV-1 Rev (Human immunodeficiency virus 1) (UniProt P04618); assay: filter
[2] = biological target: HIV-1 Rev (Human immunodeficiency virus 1) (UniProt P04618); assay: competition; conditions: D1/2 vs labelled RRE; 17 nM rev

## R7 full-length RRE transcript (238 nt)
[1]; 50% RNA bound at 10 nM rev, 43 mM Tris pH 8.0, 50 mM KCl, 4 C
  Kd: 3 nM
[1]; Scatchard high-affinity site, 50 mM KCl
  Kd: 2 nM
[1]; Scatchard high-affinity site, 200 mM KCl
  Kd: 4 nM
[2]
  IC50: 2 nM
